These results are taken from article PMC7353165 (Molecular Biology of the Cell, 2020).

The experiment addresses T1, WT-EphB1-YFP (mouse EphB1 C-terminal YFP-tagged) (mouse, UniProt Q8CBF3 18-984).
T1 sequence (looked up): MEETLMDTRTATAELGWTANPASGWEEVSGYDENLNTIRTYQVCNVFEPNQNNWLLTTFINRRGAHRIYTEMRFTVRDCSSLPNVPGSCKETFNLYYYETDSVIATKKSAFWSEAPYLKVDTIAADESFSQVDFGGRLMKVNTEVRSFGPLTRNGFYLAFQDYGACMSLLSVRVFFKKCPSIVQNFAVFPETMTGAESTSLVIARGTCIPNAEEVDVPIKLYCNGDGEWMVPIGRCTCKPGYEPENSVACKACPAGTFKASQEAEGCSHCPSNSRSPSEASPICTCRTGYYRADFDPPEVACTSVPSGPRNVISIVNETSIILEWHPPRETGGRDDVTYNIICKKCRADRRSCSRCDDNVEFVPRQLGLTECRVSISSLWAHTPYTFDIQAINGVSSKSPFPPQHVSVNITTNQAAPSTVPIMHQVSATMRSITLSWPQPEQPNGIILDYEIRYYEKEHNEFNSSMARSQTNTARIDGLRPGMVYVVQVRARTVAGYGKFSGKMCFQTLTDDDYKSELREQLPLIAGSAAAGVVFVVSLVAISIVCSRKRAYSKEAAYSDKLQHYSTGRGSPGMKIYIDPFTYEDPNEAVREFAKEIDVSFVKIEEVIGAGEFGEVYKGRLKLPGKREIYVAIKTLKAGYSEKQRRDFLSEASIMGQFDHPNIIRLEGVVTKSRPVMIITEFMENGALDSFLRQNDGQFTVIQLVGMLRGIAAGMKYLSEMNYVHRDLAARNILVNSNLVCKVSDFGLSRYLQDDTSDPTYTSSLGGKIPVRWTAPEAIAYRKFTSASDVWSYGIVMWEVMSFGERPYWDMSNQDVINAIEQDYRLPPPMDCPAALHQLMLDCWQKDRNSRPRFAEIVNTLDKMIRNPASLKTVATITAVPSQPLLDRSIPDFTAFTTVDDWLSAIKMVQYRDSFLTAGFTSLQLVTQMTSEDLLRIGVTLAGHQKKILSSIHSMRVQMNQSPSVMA
The experiment in a line: FRET or BRET.

B1: WT-Cav-1-CFP (C-terminal CFP-tagged Cav-1) (natural protein, UniProt Q03135 1-178, looked up)
chain: MSGGKYVDSEGHLYTVPIREQGNIYKPNNKAMADELSEKQVYDAHTKEIDLVNRDPKHLNDDVVKIDFEDVIAEPEGTHSFDGIWKASFTTFTVTKYWFYRLLSALFGIPMALIWGIYFAILSFLHIWAVVPCIKSFLIEIQCISRVYSIYVHTVCDPLFEAVGKIFSNVRINLQKEI
On to B1, for which the “fold FRET intensity against EphB1^∆808-815-YFP with WT-Cav-1-CFP” value turned out to be 4 fold.
